B1: TPR t1 (parent)
chain: GACCAAUCUGCCCUCAGAGCUCGAGAACAUCUUCGGAUGCAGAGGAGGCAGGCUUCGGUGGCGCGAUAGCGCCAACGUCCUCAACCUCCAAUGCAUCCCACCACAUGAUGAUGCCUGAAGAGCCUUGGUUUUUUG

Variants of: B1
Assay: polymerase ribozyme fitness, log enrichment relative to wild type (log ratio); higher = more active; in vitro selection for triplet polymerase activity
How it was run: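 Libraries of mutants in each subunit of a heterodimeric triplet polymerase ribozyme were generated by PCR and transcribed. In triplicate, each went through one in vitro selection round: annealing with biotinylated primer, partner subunit and triplets; frozen incubation at −7 °C; gel excision of extended constructs; streptavidin-bead capture; RT-PCR. Fitness, taken from Illumina sequencing of input and output libraries, is the logarithm of a genotype's enrichment over wild-type enrichment, averaged across replicates with inverse-variance weights. The logarithm is base 2, and genotypes needed ≥10 input reads and ≥1 read per output to be kept.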

Variant	polymerase ribozyme fitness (log ratio)
C13A G63A C72U G127C	-3.45
C13A U32A C53G	-6.04
C12U G48A C56G C72U	-1.47
C12U G48C G63U U130C	-1
C13G A18U A27G C53U C89A C104U	-5.29
C13A A90G	-1.55
C13A G52U C70U	-2.88
C12U C72G A103G C124A	-5.75
C12U G61U C62U G113A	-4.94
C12U G63A	-0.293
C12U G63C	-0.399
C13A U38G G58U	-2.03
C12U G117A G127C	-0.67
C13A C72G	-1.85
C13A C72A	-2.25
C12U U21A C40G C89G A121G	-1.38
C13A G93U C98U	-4.03
C13A C28G A46G G110C U125C	-0.574
C12U G17A U59A G61C C124A	-1.65
C13A A16U U116G	-1.13
C13A A46C C64U U112C	-1.16

Variant	polymerase ribozyme fitness (log ratio)
C13A G44A	-2.95
C13A G44C	-1.83
C13A G60U C86U	-2.73
C13A C70G G93A C104A G110C	-6.34
C12U G52U C53G G61C	-4.41
C13A A43G	-3.45
C13A C49U C53G G61U	-3.09
C13A C22G G69U G120U	-1.67
C12U G47U G63A U129A	-3.16
C12U C86A C98U	-0.708
C13A G17C C72U C88U A121G	-2.21
C12U U14C C15G A41C U112A	-2.25
C13A C20U C40U C72A A83C G117U C124A	-4.4
C12U G42A	-1.82
C12U G42U	-0.819
C13A G52U U55C	-2.87
C12U C85U U112C	0.732
C12U U33G	-5.61
C13A G17U	-4.98
C13A G71U	-1.35
C12U U38C G42U G61A U96A G122U	-4.37

Variant	polymerase ribozyme fitness (log ratio)
C12U C124U	1.66
C13A C94A	-2.07
C13A C94U	-2.74
C12U G63C G93U	-1.29
C13A U87A G113A	-2.16
C12U G45C C104A G117A	-3.2
C13A C82A C94U G110A	-3.09
C13A G57U	-1.78
C13A C40U C49G C88A	-3.8
C13A C64U C115A	-2.72
C13A C40U C62A C123G	-0.545
C12U G61A	0.126
C13A C40A G52A C56U	-2.98
C12U G36C G45A	-0.823
C12U C62U G69A	-3.66
C12U G17C	-3.21
C12U U130A	-0.0283
C12U G57A G63A G113C	-5.3
C12U C73A U96A C104U	-0.414
C13A A16U	-0.236
C13A A108G	-5.35

Variant	polymerase ribozyme fitness (log ratio)
C13A A24G G58C C115A	-3.96
C12U G71C C97U	-0.967
C12U C72U C86U U112C	1.05
C12U C73U A95U A111U	-2.86
C12U G47U C85G A111C	-2.51
C12U G39U G61C C88G	-3.48
C13A U14C A16C C115A A119G	-2
C12U G71U	0.0835
C12U U112A	1.23
C13A U32C C49U G61A G77C U92C	-3.43
C12U G48U C49U G63C C94U G128C	-4.36
C13A C20U	-3.77
C12U G48A	-0.765
C12U C86G	-0.52
C13A C15A G47A C123U G127C	-3.95
C12U G45U G57A G60A U116G	-1.77
C13A G42U	-3.39
C12U G52A U78A	-0.0318
C13A U112C	-0.888
C13A G23C A50G G113C	-6.66

From the RNAGym collection of RNA variant scans (doi:10.1073/pnas.2313332121)
